Measurements from the Immune Epitope Database (IEDB).
pKd: −log10 of the molar value.

What was measured:
HLA-A*26:01 = assay: IEDB peptide-MHC binding, purified MHC/competitive/radioactivity; filed as Kd, often an IC50 or EC50 that approximates it; ≥ and ≤ were set here for values at or beyond the usual limits of such assays
HLA-A*01:01 [1] = assay: as above
HLA-A*30:02 = assay: as above
HLA-A*02:01 = assay: IEDB peptide-MHC binding, purified MHC/direct/fluorescence; filed as Kd, often an IC50 or EC50 that approximates it; ≥ and ≤ were set here for values at or beyond the usual limits of such assays
HLA-A*69:01 = assay: as above
HLA-A*01:01 [2] = assay: as above
HLA-B*58:01 = assay: as above
HLA-B*53:01 = assay: IEDB peptide-MHC binding, purified MHC/competitive/radioactivity; filed as Kd, often an IC50 or EC50 that approximates it; ≥ and ≤ were set here for values at or beyond the usual limits of such assays
HLA-A*03:01 [3] = assay: IEDB peptide-MHC binding, purified MHC/direct/fluorescence; filed as Kd, often an IC50 or EC50 that approximates it; ≥ and ≤ were set here for values at or beyond the usual limits of such assays
HLA-A*31:01 = assay: IEDB peptide-MHC binding, purified MHC/competitive/radioactivity; filed as Kd, often an IC50 or EC50 that approximates it; ≥ and ≤ were set here for values at or beyond the usual limits of such assays; settings: source organism: Dengue virus 2 Jamaica/1409/1983
HLA-A*33:01 = assay: as above; settings: source organism: Dengue virus 2 Jamaica/1409/1983
HLA-A*68:01 = assay: as above; settings: source organism: Dengue virus 2 Jamaica/1409/1983
HLA-A*11:01 = assay: IEDB peptide-MHC binding, purified MHC/direct/fluorescence; filed as Kd, often an IC50 or EC50 that approximates it; ≥ and ≤ were set here for values at or beyond the usual limits of such assays
HLA-A*03:01 [4] = assay: IEDB peptide-MHC binding, purified MHC/competitive/radioactivity; filed as Kd, often an IC50 or EC50 that approximates it; ≥ and ≤ were set here for values at or beyond the usual limits of such assays; settings: source organism: Dengue virus 3 Martinique/1243/1999
HLA-A*02:03 = assay: as above
HLA-A*02:06 = assay: as above
HLA-A*02:02 = assay: as above
[5] = source organism: Mammarenavirus caliense
[6] = source organism: Vibrio parahaemolyticus
[7] = source organism: Dengue virus 1 Brazil/97-11/1997
[8] = source organism: Dengue virus 2 Jamaica/1409/1983
[9] = source organism: Mycobacterium tuberculosis variant bovis
[10] = source organism: Coxiella burnetii
[11] = source organism: Dengue virus 1 Singapore/S275/1990
[12] = source organism: Dengue virus 3 Martinique/1243/1999
[13] = source organism: Dengue virus 4 Philippines/H241/1956
[14] = source organism: Bacillus anthracis
[15] = source organism: Mycobacterium tuberculosis
[16] = source organism: SARS coronavirus Tor2
[17] = source organism: Vaccinia virus WR
[18] = source organism: Mammarenavirus whitewaterense

SEFKSRFFIW was tested, and the pKd (HLA-A*26:01; [5]) was ≤ 4.16, the pKd (HLA-A*01:01 [1]; [5]) was 5.66 and the pKd (HLA-A*30:02; [5]) was 5.13.

For FQLAAPSGF, the pKd (HLA-A*02:01; [6]) was 5.05 and the pKd (HLA-A*69:01; [6]) was ≤ 4.70.

In the case of RTPQDNQLAY, the pKd (HLA-A*01:01 [1]; [7]) was 6.15 and the pKd (HLA-A*30:02; [7]) was 6.57.

For SLIPDATHL, the pKd (HLA-A*02:01; source organism: Lassa virus Josiah) was 7.74.

Sequence GSDGGLDDY has a pKd (HLA-A*01:01 [2]; source organism: Homo sapiens) of 7.24 and a pKd (HLA-A*69:01; source organism: Homo sapiens) of 5.71.

TAVPWNASW was tested, and the pKd (HLA-B*58:01; source organism: Human immunodeficiency virus 1) was 7.89.

Sequence LIGLTARATW has a pKd (HLA-B*53:01; [7]) of 5.74.

With LLMEGLKLL the pKd (HLA-A*02:01; source organism: Mammarenavirus lassaense) was ≥ 9.00.

With IAGGMLIACY the pKd (HLA-A*30:02; [7]) was 6.38.

HPGAGKTKRY was tested, and the pKd (HLA-B*53:01; [8]) was ≤ 4.69.

For GVQPSATGR, the pKd (HLA-A*03:01 [3]; [9]) was ≤ 4.70.

YVDHYYRDY was tested, and the pKd (HLA-A*01:01 [2]; source organism: Homo sapiens) was 7.03 and the pKd (HLA-A*69:01; source organism: Homo sapiens) was 5.70.

TVMDIISRR was tested, and the pKd (HLA-A*26:01; [8]) was 5.57, the pKd (HLA-A*31:01) was 7.75 and the pKd (HLA-A*33:01) was 7.95. It also gave a pKd (HLA-A*68:01) of 8.41.

For LTEFQPHQL, the pKd (HLA-A*01:01 [1]; [7]) was 5.06.

With ILCGWHLLK the pKd (HLA-A*03:01 [3]; [10]) was 7.48 and the pKd (HLA-A*11:01; [10]) was 8.42.

Work on EVDSFSLGL yielded a pKd (HLA-A*01:01 [1]; [11]) of 4.98.

Work on EPSKGWNDW yielded a pKd (HLA-B*53:01; [7]) of 5.95.

For RNPQKENDQY, the pKd (HLA-A*30:02; [12]) was ≤ 4.16.

For KLMSGKDVFY, the pKd (HLA-A*03:01 [4]) was 7.80, the pKd (HLA-A*01:01 [1]; [12]) was 5.83 and the pKd (HLA-A*30:02; [12]) was ≤ 4.16.

TTDISEMGA was tested, and the pKd (HLA-A*01:01 [1]; [13]) was 6.73.

MASTPASRY was tested, and the pKd (HLA-A*01:01 [2]; source organism: Influenza A virus (A/Fujian/411/02-like(H3N2))) was ≤ 4.70.

For NPAVLRKLCI, the pKd (HLA-B*53:01; [7]) was 5.28.

In the case of TWHYDEDNPY, the pKd (HLA-A*30:02; [7]) was 5.51.

Sequence ATMTDDIGM has a pKd (HLA-A*26:01; [8]) of 5.08.

LPLFIFSLKD gave a pKd (HLA-B*53:01; [12]) of 5.53.

For MTTEDMLTVW, the pKd (HLA-B*53:01; [12]) was 6.91.

ETTKHAVSRG was tested, and the pKd (HLA-A*26:01; [7]) was ≤ 4.16.

Sequence GSQPGGPLK has a pKd (HLA-A*03:01 [3]; [9]) of 5.80.

VLRGNRQGL was tested, and the pKd (HLA-A*02:01; [14]) was 5.35 and the pKd (HLA-A*69:01; [14]) was ≤ 4.70.

With AWNFLEVEDY the pKd (HLA-A*30:02; [13]) was 7.07.

VAGGLLLAAY showed a pKd (HLA-A*30:02; [13]) of 7.10.

Work on ESEMIIPKIY yielded a pKd (HLA-A*26:01; [11]) of 4.70, a pKd (HLA-A*01:01 [1]; [11]) of 5.21 and a pKd (HLA-A*30:02; [11]) of 4.93.

ALAAATPMV gave a pKd (HLA-A*02:01; [15]) of 8.28.

In the case of EFIDGISLGL, the pKd (HLA-A*26:01; [13]) was 5.33.

In the case of VAIDLDPVVY, the pKd (HLA-A*01:01 [1]; [7]) was ≤ 4.48 and the pKd (HLA-A*30:02; [7]) was 6.08.

With DVVDRGWGN the pKd (HLA-A*26:01; [13]) was ≤ 4.11.

Work on YVDFREYEYD yielded a pKd (HLA-A*01:01 [1]; source organism: Homo sapiens) of 7.05.

With GTDAPCKIPF the pKd (HLA-A*01:01 [1]; [7]) was ≤ 4.35.

In the case of ALLFLMSFTI, the pKd (HLA-A*02:03; [16]) was 6.70, the pKd (HLA-A*02:06; [16]) was 7.84 and the pKd (HLA-A*02:02; [16]) was 9.44.

MTSTRTIILV was tested, and the pKd (HLA-A*02:03; [17]) was 6.04, the pKd (HLA-A*02:06; [17]) was 6.66 and the pKd (HLA-A*02:02; [17]) was 5.70.

ELSRLRYNL was tested, and the pKd (HLA-A*02:03; [17]) was 6.60, the pKd (HLA-A*02:06; [17]) was 4.73 and the pKd (HLA-A*02:02; [17]) was 9.03.

FIPIIYSKA was tested, and the pKd (HLA-A*02:03; [17]) was 8.74, the pKd (HLA-A*02:06; [17]) was 7.02 and the pKd (HLA-A*02:02; [17]) was 9.26.

VLWDIPTPK gave a pKd (HLA-A*11:01; source organism: Yellow fever virus 17D) of 8.36.

ILQDMRNTI showed a pKd (HLA-A*02:01; source organism: Alto Paraguay hantavirus) of 8.12.

QLSKSEFNTY gave a pKd (HLA-A*01:01 [1]; [7]) of 5.86 and a pKd (HLA-A*30:02; [7]) of 7.15.

Work on LTEFQPHQLW yielded a pKd (HLA-A*01:01 [1]; [7]) of 4.89 and a pKd (HLA-B*53:01; [7]) of 6.00.

For SLETVKMGA, the pKd (HLA-A*02:03; [17]) was 6.26, the pKd (HLA-A*02:06; [17]) was ≤ 4.63 and the pKd (HLA-A*02:02; [17]) was 4.95.

With FGVFTTNIW the pKd (HLA-B*53:01; [8]) was 6.95.

IMAFILGII was tested, and the pKd (HLA-A*02:03; [17]) was 7.53, the pKd (HLA-A*02:06; [17]) was 6.76 and the pKd (HLA-A*02:02; [17]) was 7.77.

For SRKTFDSEY, the pKd (HLA-A*30:02; [8]) was 5.42.

In the case of KYPNLNDLK, the pKd (HLA-A*26:01; [18]) was ≤ 4.11, the pKd (HLA-A*01:01 [1]; [18]) was ≤ 4.39 and the pKd (HLA-A*30:02; [18]) was 5.02.

HVTRGAVLM gave a pKd (HLA-A*26:01; [8]) of 5.31.

Sequence KLDPTNTLW has a pKd (HLA-B*58:01; source organism: Mammarenavirus juninense) of 7.17.

With DVIPMVTQL the pKd (HLA-A*26:01; [13]) was 6.95.

NLERETGLSA gave a pKd (HLA-A*02:03; [17]) of 5.78, a pKd (HLA-A*02:06; [17]) of 4.82 and a pKd (HLA-A*02:02; [17]) of 4.75.

For ALLDLGWTI, the pKd (HLA-A*02:01; [15]) was 9.05.

With NPTVDGITVI the pKd (HLA-B*53:01; [8]) was 5.60.

In the case of NISFKSINKV, the pKd (HLA-A*02:03; [17]) was 5.82, the pKd (HLA-A*02:06; [17]) was 4.93 and the pKd (HLA-A*02:02; [17]) was ≤ 4.69.

In the case of ELTSNCTRTT, the pKd (HLA-A*02:03; [17]) was 5.83, the pKd (HLA-A*02:06; [17]) was 5.24 and the pKd (HLA-A*02:02; [17]) was 4.84.

In the case of CSHHFHELV, the pKd (HLA-A*01:01 [1]; [8]) was ≤ 4.63.

For ILSLETVKM, the pKd (HLA-A*02:03; [17]) was 7.93, the pKd (HLA-A*02:06; [17]) was 6.55 and the pKd (HLA-A*02:02; [17]) was 8.32.

Work on STESHNQTF yielded a pKd (HLA-A*01:01 [1]; [8]) of 5.09.

For KLFKRERDAI, the pKd (HLA-A*02:03; [17]) was 6.92, the pKd (HLA-A*02:06; [17]) was 4.85 and the pKd (HLA-A*02:02; [17]) was 7.03.

With KLLPDTAAV the pKd (HLA-A*02:01; source organism: Amur virus) was 8.68.

Work on FLTSLLILV yielded a pKd (HLA-A*02:03; [16]) of 7.92, a pKd (HLA-A*02:06; [16]) of 8.48 and a pKd (HLA-A*02:02; [16]) of 8.66.

With LLLSICLGSL the pKd (HLA-A*02:03; [16]) was 6.98, the pKd (HLA-A*02:06; [16]) was 6.59 and the pKd (HLA-A*02:02; [16]) was 7.70.

In the case of NVISKIYTL, the pKd (HLA-A*02:03; [17]) was 7.01, the pKd (HLA-A*02:06; [17]) was 8.76 and the pKd (HLA-A*02:02; [17]) was 6.83.

Sequence LAISAVYFKA has a pKd (HLA-A*02:03; [17]) of 6.44, a pKd (HLA-A*02:06; [17]) of 6.18 and a pKd (HLA-A*02:02; [17]) of 5.84.

NPQKENDQY gave a pKd (HLA-B*53:01; [12]) of 5.68.

For CAVIPFDDI, the pKd (HLA-A*02:03; [17]) was ≤ 5.00, the pKd (HLA-A*02:06; [17]) was 5.94 and the pKd (HLA-A*02:02; [17]) was 4.80.

Work on KCDICTDEY yielded a pKd (HLA-A*01:01 [2]; source organism: Homo sapiens) of 6.09.
